Experimental findings from PMC4291175 (Nature protocols, 2014) are described below.

In data set [1] the target is GluCl-EGFP (Caenorhabditis elegans glutamate-gated chloride channel, EGFP gene fusion) (Caenorhabditis elegans) (UniProt G5EBR3). As to the kind of experiment: SEC. (SEC sorts molecules by how far they enter the pores of the column.)
The data set “SEC” deals with the molecule itself. Kind of data set: SEC.

As a reminder, the stoichiometry N is a count of units in the complex or per binding partner.

For the molecule “GluCl-EGFP (Caenorhabditis elegans glutamate-gated chloride channel, EGFP gene fusion) (from UniProt G5EBR3 21-461) (natural protein)”, the stoichiometry N in data set [1] was 5.

B1: cASIC463 (chicken acid-sensing ion channel 1a truncated 64 residues from the carboxy terminus), N-terminal eGFP tagged (domain or fragment, Gallus gallus, UniProt Q1XA76 1-463, looked up)
chain: MMDLKVDEEEVDSGQPVSIQAFASSSTLHGISHIFSYERLSLKRVVWALCFMGSLALLALVCTNRIQYYFLYPHVTKLDEVAATRLTFPAVTFCNLNEFRFSRVTKNDLYHAGELLALLNNRYEIPDTQTADEKQLEILQDKANFRNFKPKPFNMLEFYDRAGHDIREMLLSCFFRGEQCSPEDFKVVFTRYGKCYTFNAGQDGKPRLITMKGGTGNGLEIMLDIQQDEYLPVWGETDETSFEAGIKVQIHSQDEPPLIDQLGFGVAPGFQTFVSCQEQRLIYLPPPWGDCKATTGDSEFYDTYSITACRIDCETRYLVENCNCRMVHMPGDAPYCTPEQYKECADPALDFLVEKDNEYCVCEMPCNVTRYGKELSMVKIPSKASAKYLAKKYNKSEQYIGENILVLDIFFEALNYETIEQKKAYEVAGLLGDIGGQMGLFIGASILTVLELFDYAYEVIKHR
Regarding B1, in “SEC”, the “stoichiometry N” value amounted to 3.
